Publication PMC4823331

Target: pneumolysin (Streptococcus pneumoniae) (UniProt P0C2J9)

Chain of pneumolysin (P0C2J9 whole entry): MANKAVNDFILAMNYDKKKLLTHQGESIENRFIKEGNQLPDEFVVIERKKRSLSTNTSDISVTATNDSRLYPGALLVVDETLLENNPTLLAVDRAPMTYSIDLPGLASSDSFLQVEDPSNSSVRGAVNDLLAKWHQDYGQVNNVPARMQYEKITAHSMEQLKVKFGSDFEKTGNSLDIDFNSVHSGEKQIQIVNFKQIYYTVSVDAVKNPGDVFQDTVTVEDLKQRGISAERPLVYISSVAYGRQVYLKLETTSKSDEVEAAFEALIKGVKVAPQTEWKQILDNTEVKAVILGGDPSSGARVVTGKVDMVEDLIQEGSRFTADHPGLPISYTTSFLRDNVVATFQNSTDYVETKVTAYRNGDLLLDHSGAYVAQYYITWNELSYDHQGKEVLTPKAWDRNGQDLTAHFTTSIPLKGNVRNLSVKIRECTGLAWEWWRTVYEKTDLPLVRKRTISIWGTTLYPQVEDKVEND

pneumolysin (from UniProt P0C2J9 1-471) (natural protein)
k0.5 of the reciprocal lag length before lysis of sheep erythrocytes against pneumolysin concentration (fit with Eq. 3), 30.0 °C: 143 nM
k0.5 of the reciprocal lag length before lysis of sheep erythrocytes against pneumolysin concentration (fit with Eq. 3), 33.0 °C: 176 nM
k0.5 of the reciprocal lag length before lysis of sheep erythrocytes against pneumolysin concentration (fit with Eq. 3), 35.0 °C: 243 nM
k0.5 of the reciprocal lag length before lysis of sheep erythrocytes against pneumolysin concentration (fit with Eq. 3), 37.0 °C: 405 nM
k0.5 of the reciprocal lag length before lysis of sheep erythrocytes against pneumolysin concentration (fit with Eq. 3), 38.5 °C: 266 nM
